The text below walks through data of patent publication US7052908B2, “Androgen receptor coactivators” (University of Rochester, priority 1998, dated 2006).

In experiment [1] the target is T1, estrogen receptor (ER) (Homo sapiens, UniProt P03372).
T1 construct: expressed in transfected cells; host or cells: DU145
T1 sequence (P03372 1-595): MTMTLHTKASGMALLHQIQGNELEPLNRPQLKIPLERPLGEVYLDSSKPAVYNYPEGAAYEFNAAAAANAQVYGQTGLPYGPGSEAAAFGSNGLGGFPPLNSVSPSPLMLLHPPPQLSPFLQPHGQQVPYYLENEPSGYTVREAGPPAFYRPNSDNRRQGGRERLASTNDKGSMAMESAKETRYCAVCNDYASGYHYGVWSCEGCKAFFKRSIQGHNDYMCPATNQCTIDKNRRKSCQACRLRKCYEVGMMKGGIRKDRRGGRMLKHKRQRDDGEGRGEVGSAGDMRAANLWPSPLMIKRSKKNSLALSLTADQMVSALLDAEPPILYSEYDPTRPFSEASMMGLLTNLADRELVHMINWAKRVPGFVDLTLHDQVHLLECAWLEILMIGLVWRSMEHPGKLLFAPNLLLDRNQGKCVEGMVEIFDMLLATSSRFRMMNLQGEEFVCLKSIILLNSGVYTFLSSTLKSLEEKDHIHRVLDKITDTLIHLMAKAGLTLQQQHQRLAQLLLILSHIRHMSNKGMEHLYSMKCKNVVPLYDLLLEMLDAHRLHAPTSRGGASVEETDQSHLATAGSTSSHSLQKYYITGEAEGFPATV
The experiment can be described thus: Steroid receptor transactivation, ERE-CAT reporter in DU145 cells. Type of experiment: cell-based. To be noted: DU145.

For experiment [2], the target named is T2, mARe708k (Homo sapiens, UniProt P10275, E710K).
T2 construct: expressed in transfected cells; host or cells: DU145
T2 sequence (P10275 1-920 E710K): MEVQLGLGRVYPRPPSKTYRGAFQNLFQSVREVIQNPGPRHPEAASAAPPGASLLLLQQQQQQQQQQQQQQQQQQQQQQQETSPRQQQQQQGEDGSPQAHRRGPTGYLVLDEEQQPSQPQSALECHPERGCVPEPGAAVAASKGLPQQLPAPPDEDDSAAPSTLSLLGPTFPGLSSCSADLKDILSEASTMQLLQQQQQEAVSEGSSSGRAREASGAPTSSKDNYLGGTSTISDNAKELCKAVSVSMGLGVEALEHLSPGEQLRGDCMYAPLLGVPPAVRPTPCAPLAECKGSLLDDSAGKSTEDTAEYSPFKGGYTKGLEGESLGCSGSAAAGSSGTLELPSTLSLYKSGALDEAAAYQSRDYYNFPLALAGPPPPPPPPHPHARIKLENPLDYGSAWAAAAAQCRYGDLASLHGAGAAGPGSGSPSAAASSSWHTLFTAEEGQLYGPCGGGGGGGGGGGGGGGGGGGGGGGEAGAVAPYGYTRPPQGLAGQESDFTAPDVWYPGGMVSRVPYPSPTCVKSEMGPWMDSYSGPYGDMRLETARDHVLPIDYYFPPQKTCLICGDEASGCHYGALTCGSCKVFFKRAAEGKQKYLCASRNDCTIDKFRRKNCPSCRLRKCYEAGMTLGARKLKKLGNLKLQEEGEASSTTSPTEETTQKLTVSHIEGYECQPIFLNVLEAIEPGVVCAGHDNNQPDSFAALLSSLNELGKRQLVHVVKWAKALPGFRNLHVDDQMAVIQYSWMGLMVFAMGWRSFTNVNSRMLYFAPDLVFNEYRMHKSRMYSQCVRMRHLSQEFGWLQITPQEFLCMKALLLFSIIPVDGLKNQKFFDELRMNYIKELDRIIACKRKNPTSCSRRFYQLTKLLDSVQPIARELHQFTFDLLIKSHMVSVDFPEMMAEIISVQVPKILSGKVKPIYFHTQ
The experiment can be described thus: AR transactivation, transient transfection CAT reporter assay, mutant AR. As to conditions: mARe708k, DHT 10^-11 to 10^-8 M. Type of experiment: cell-based. For orientation: Reporter assays use an easily measured gene product as a stand-in for the process of interest.

The target of experiment [3] is T3, AR (Homo sapiens, UniProt P10275).
T3 sequence (P10275 1-920): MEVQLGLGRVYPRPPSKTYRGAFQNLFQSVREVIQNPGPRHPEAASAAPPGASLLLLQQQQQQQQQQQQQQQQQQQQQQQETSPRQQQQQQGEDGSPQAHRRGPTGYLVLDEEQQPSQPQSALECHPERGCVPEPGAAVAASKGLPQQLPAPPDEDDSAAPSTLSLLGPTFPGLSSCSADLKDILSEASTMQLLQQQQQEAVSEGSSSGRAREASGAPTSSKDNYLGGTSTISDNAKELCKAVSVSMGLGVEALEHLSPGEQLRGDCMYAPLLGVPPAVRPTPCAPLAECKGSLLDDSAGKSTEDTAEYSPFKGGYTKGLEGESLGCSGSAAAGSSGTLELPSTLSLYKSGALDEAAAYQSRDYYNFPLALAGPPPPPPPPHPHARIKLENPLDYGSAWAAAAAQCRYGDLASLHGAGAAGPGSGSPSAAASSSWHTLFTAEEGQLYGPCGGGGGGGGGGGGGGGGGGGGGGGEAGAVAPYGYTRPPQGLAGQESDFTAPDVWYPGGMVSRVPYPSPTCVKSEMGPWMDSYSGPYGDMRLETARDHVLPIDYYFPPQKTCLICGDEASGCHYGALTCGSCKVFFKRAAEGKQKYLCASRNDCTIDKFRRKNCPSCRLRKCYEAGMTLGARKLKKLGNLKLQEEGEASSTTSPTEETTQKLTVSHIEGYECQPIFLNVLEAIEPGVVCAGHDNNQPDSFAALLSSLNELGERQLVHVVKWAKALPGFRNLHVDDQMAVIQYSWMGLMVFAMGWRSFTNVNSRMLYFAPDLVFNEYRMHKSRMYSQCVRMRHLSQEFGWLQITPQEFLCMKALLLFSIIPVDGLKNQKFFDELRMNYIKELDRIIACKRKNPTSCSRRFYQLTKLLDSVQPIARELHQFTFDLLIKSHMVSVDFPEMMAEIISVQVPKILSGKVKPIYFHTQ
The experiment can be described thus: AR transcriptional activity (MMTV-CAT) in PC3 cells.

B1: ARA55: androgen receptor coactivator, 444 aa, SEQ ID NO:4, 91% homology with mouse hic5 (protein)
chain: MPRSGAPKERPAEPLTPPPSYGHQPTGQSGESSGASGDKDHLYSTVCKPRSPKPAAPAAPPFSSSSGVLGTGLCELDRLLQELNATQFNITDEIMSQFPSSKVASGEQKEDQSEDKKRPSLPSSPSPGLPKASATSATLELDRLMASLPDFRVQNHLPASGPTQPPVVSSTNEGSPSPPEPTAKGSLDTMLGLLQSDLSRRGVPTQAKGLCGSCNKPIAGQVVTALGRAWHPEHFVCGGCSTALGGSSFFEKDGAPFCPECYFERFSPRCGFCNQPIRHKMVTALGTHWHPEHFCCVSCGEPFGDEGFHEREGRPYCRRDFLQLFAPRCQGCQGPILDNYISALSLLWHPDCFVCRECFAPFSGGSFFEHEGRPLCENHFHARRGSLCPTCGLPVTGRCVSALGRRFHPDHFACTFCLRPLTKGSFQERAGKPYCQPCFLKLFG
modifications: Homo sapien
In the case of B1, the “effect of ARA55 on ER transcriptional activation” value in experiment [1] is listed as “marginal effect”. The “enhancement of transactivation by ARA55” value in experiment [2] was 4–8 fold. In experiment [3], the “increase of AR transcriptional activity on transfection with exogenous ARA55” value is 4 fold.
